In paper PMC6054644:

Legend:
[1] = target: rhodamine phalloidin F-actin (G-actin from Cytoskeleton, AKL99) (UniProt P68135); assay: ultrafast force-clamp spectroscopy (optical tweezers); single biotinylated myosin-5B on a streptavidin bead pedestal, single actin filament suspended between two trapped alpha-actinin beads; 25 mM MOPS pH 7.2, 25 mM KCl, 4 mM MgCl2, 1 mM EGTA, 2 uM CaM, 100 uM ATP; assistive and resistive forces 0.5-3 pN; no added Ca2+
[2] = target: F-actin from rabbit skeletal muscle acetone powder (rabbit) (UniProt P68135)

Substance | k0^+ (detachment rate from actin, exponential fit extrapolated to zero force, resistive forces, 100 µM ATP) [1] [s⁻¹] | k0^− (detachment rate from actin, exponential fit extrapolated to zero force, assistive forces, 100 µM ATP) [1] [s⁻¹] | actin-activated steady-state ATPase activity (NADH-coupled assay), Kapp for F-actin at 2000 µM ATP [2] [µM]
biotinylated Avi-tag myosin-5B heavy meromyosin with bound calmodulin (from UniProt P21271 1-1095; P0DP29 1-149) (complex) | 0.64 | 2.3 | –
myosin-5B heavy meromyosin with bound calmodulin (Flag-tagged) (from UniProt P21271 1-1095; P0DP29 1-149) (complex) | – | – | 1.34
